The assay concerns the target T1, human DNA polymerase α catalytic subunit p180 with the N-terminus (residues 1–334) deleted (human, UniProt P09884 335-1462).
T1 sequence (looked up): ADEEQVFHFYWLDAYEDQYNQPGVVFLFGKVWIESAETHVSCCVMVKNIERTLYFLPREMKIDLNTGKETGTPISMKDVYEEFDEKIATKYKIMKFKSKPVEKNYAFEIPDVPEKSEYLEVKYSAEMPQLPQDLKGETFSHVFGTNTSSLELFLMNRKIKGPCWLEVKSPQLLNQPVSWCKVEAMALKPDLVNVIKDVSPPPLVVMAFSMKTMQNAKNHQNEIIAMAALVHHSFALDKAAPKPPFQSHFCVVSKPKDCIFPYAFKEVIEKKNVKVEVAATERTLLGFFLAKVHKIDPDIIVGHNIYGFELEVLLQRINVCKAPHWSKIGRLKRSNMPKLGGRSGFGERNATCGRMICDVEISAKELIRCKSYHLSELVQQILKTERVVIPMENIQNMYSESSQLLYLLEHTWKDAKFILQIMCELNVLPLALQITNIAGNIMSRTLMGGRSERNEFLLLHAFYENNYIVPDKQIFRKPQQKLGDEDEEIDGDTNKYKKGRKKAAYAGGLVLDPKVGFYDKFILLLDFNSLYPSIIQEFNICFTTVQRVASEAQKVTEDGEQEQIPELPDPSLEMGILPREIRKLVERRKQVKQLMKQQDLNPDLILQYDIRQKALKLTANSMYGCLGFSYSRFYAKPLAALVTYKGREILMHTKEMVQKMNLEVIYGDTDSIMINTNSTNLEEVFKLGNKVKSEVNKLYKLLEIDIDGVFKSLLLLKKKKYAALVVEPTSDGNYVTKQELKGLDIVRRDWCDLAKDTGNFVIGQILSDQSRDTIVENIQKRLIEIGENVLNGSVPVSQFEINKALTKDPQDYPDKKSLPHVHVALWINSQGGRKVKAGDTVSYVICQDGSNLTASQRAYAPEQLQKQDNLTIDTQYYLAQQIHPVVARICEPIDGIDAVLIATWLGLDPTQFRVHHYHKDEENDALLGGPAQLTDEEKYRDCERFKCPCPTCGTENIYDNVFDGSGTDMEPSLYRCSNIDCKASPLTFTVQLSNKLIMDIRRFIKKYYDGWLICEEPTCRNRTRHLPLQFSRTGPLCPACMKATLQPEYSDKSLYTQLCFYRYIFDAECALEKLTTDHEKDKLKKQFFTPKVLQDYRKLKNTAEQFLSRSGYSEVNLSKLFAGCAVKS
Description: cryo-EM structure.

Consider 1 molecule from PMC10268227 (Nature structural & molecular biology, 2023).

B1: human DNA polymerase α accessory subunit p70 (natural protein, UniProt Q14181 1-598, looked up)
chain: MSASAQQLAEELQIFGLDCEEALIEKLVELCVQYGQNEEGMVGELIAFCTSTHKVGLTSEILNSFEHEFLSKRLSKARHSTCKDSGHAGARDIVSIQELIEVEEEEEILLNSYTTPSKGSQKRAISTPETPLTKRSVSTRSPHQLLSPSSFSPSATPSQKYNSRSNRGEVVTSFGLAQGVSWSGRGGAGNISLKVLGCPEALTGSYKSMFQKLPDIREVLTCKIEELGSELKEHYKIEAFTPLLAPAQEPVTLLGQIGCDSNGKLNNKSVILEGDREHSSGAQIPVDLSELKEYSLFPGQVVIMEGINTTGRKLVATKLYEGVPLPFYQPTEEDADFEQSMVLVACGPYTTSDSITYDPLLDLIAVINHDRPDVCILFGPFLDAKHEQVENCLLTSPFEDIFKQCLRTIIEGTRSSGSHLVFVPSLRDVHHEPVYPQPPFSYSDLSREDKKQVQFVSEPCSLSINGVIFGLTSTDLLFHLGAEEISSSSGTSDRFSRILKHILTQRSYYPLYPPQEDMAIDYESFYVYAQLPVTPDVLIIPSELRYFVKDVLGCVCVNPGRLTKGQVGGTFARLYLRRPAADGAERQSPCIAVQVVRI
As for B1, the binding result is “binds”.
